Data published in patent US20180155451A1 (published 2018).

T1: FcγRIIb extracellular domain with C-terminal His tag (human, UniProt P31994 43-217)
T1 construct: extracellular domain; Soluble receptor expressed in FreeStyle293 cells, used as analyte in Biacore; also called FcgRIIb; CD32B; not shown: His tag at the C terminus
T1 sequence (looked up): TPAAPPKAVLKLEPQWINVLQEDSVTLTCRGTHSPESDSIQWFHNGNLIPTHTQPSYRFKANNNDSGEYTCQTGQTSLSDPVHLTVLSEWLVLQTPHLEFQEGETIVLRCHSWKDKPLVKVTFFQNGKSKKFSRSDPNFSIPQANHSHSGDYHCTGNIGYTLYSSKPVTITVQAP

T2: FcγRIIa R (extracellular domain, C-terminal His tag) (human, UniProt P12318 34-217)
T2 construct: extracellular domain; also called FcgRIIa R type; 2aR; not shown: His tag attached to the C terminus
T2 sequence (looked up): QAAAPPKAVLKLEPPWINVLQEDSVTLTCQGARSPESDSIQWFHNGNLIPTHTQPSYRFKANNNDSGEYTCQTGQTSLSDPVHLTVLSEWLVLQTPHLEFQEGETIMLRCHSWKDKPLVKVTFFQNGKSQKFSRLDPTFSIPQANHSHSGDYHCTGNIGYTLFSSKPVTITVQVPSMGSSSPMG

T3: FcγRIIb (extracellular domain, C-terminal His tag) (human, UniProt P31994 43-217)
T3 construct: extracellular domain; also called FcgRIIb; 2b; not shown: His tag attached to the C terminus
T3 sequence (looked up): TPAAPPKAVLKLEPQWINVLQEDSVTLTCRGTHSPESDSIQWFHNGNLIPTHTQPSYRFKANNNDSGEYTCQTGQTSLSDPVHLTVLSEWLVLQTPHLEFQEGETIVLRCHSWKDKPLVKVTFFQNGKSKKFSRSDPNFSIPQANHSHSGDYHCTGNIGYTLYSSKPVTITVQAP


Tests used:
[1] = target: T4, FcγRIa extracellular domain with C-terminal His tag (human, UniProt P12314 16-292); assay: SPR (Biacore); ratio of He/Con_1a (FcγRIa) to He/Con_2b (FcγRIIb) of the same antibody
T4 construct: extracellular domain; Soluble receptor expressed in FreeStyle293 cells, used as analyte in Biacore; also called FcgRI; CD64; not shown: His tag at the C terminus

[2] = target: T4, FcγRIa extracellular domain with …; assay: SPR (Biacore), antibody captured via antigen peptide, FcγR as analyte; binding relative to GpH7-A5/GpH7-B3/GpL16-k0 = 100
[3] = target: T1, FcγRIIb extracellular domain with …; assay: as above
[4] = target: T2, FcγRIIa R (extracellular domain, …); assay: ratio of He/Con_2aR to He/Con_2b (FcγRIIb); SPR relative binding
Method: (§1) The heterodimerized antibodies He Abs in which one of the H chains was introduced with an alteration were assayed for their binding activities to each activating FcγR and inhibitory FcγR according to the method described in Example 4. […] The activating FcγRs in FIGS. 26, 27, 28, and 29 are FcγRIa, FcγRIIa (R), FcγRIIa (H), and FcγRIIIa, respectively.
(§2) Analysis of interaction between objective antibody and the FcγR was carried out using Biacore T100 (GE Healthcare). HBS-EP+ (GE Healthcare) was used as the running buffer, and the measurement temperature was set to 25° C. Chips produced by immobilizing the antigen peptide by the amine coupling method to a Series S Sencor Chip CM5 (GE Healthcare), or alternatively, chips produced by allowing preliminarily biotinylated antigen peptides to interact with and immobilize onto a Series S Sensor Chip SA (certified) (GE Healthcare) were used. Antibodies of interest were captured onto an antigen peptide-immobilized chip, and allowed to interact to each FcγR diluted with running buffer. To regenerate and repeatedly use the chip, the antibodies captured on the chip were washed off by reacting 10 mM glycine-HCl, pH 1.5.

[5] = target: T3, FcγRIIb (extracellular domain, …); assay: SPR (Biacore), antibody captured on antigen-peptide chip, FcγR as analyte; relative binding amount
Method: as §1, §2

[6] = target: T2, FcγRIIa R (extracellular domain, …); assay: as above
Method: as §1, §2

T4 sequence (P12314 16-292): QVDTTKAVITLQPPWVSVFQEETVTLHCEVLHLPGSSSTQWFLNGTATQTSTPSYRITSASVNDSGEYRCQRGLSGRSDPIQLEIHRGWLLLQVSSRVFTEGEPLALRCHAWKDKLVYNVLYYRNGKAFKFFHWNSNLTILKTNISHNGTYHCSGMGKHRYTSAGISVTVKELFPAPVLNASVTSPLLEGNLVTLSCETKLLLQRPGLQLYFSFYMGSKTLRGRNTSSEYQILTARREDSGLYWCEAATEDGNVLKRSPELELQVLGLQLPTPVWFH

Row | Binder | Ia/IIb He_1a/2b [1] | He/Con_1a [2] | He/Con_2b [3] | He_2aR/2b (IIaR/IIb) [4] | He/Con_2b [5] | He/Con_2aR [6]
1 | GpH7-A5/GpH7-B3 variant D265_06M/GpL16-k0 (antibody, human IgG1, kappa, Heterodimerized anti-glypican-3 IgG1; alteration in only one H chain (GpH7-B3 side); also called He Ab) heavy 1: not shown heavy 2: not shown light: DIVMTQSPLSLPVTPGEPASISCQASESLVHSNRNTYLHWYLQKPGQSPQLLIYKVSNRFSGVPDRFSGSGSGTDFTLKISRVEAEDVGVYYCSQNTHVPPTFGQGTKVEIERTVAAPSVFIFPPSDEQLKSGTASVVCLLNNFYPREAKVQWKVDNALQSGNSQESVTEQDSKDSTYSLSSTLTLSKADYEKHKVYACEVTHQGLSSPVTKSFNRGEC |  |  |  | 1.58 | 10 % of control (GpH7-A5/GpH7-B3/GpL16-k0 = 100) | 15.8 % of control (GpH7-A5/GpH7-B3/GpL16-k0 = 100)
2 | GpH7-A5/GpH7-B3 variant P238_11K/GpL16-k0 (antibody, human IgG1, kappa, Heterodimerized anti-glypican-3 IgG1; alteration in only one H chain (GpH7-B3 side); also called He Ab) heavy 1: not shown heavy 2: not shown light: DIVMTQSPLSLPVTPGEPASISCQASESLVHSNRNTYLHWYLQKPGQSPQLLIYKVSNRFSGVPDRFSGSGSGTDFTLKISRVEAEDVGVYYCSQNTHVPPTFGQGTKVEIERTVAAPSVFIFPPSDEQLKSGTASVVCLLNNFYPREAKVQWKVDNALQSGNSQESVTEQDSKDSTYSLSSTLTLSKADYEKHKVYACEVTHQGLSSPVTKSFNRGEC |  |  |  | 2.03 | 18.1 % of control (GpH7-A5/GpH7-B3/GpL16-k0 = 100) | 36.9 % of control (GpH7-A5/GpH7-B3/GpL16-k0 = 100)
3 | GpH7-A5/GpH7-B3 variant S239_12R/GpL16-k0 (antibody, human IgG1, kappa, Heterodimerized anti-glypican-3 IgG1; substitution in only one H chain; also called S239R; He Ab) heavy 1: not shown heavy 2: not shown light: DIVMTQSPLSLPVTPGEPASISCQASESLVHSNRNTYLHWYLQKPGQSPQLLIYKVSNRFSGVPDRFSGSGSGTDFTLKISRVEAEDVGVYYCSQNTHVPPTFGQGTKVEIERTVAAPSVFIFPPSDEQLKSGTASVVCLLNNFYPREAKVQWKVDNALQSGNSQESVTEQDSKDSTYSLSSTLTLSKADYEKHKVYACEVTHQGLSSPVTKSFNRGEC | 2.21 | 86.5 % of control (GpH7-A5/GpH7-B3/GpL16-k0 = 100) | 39.1 % of control (GpH7-A5/GpH7-B3/GpL16-k0 = 100) |  |  | 

Further lines, results first:

Row | Ia/IIb He_1a/2b [1] | He/Con_1a [2] | He/Con_2b [3] | He_2aR/2b (IIaR/IIb) [4] | He/Con_2b [5] | He/Con_2aR [6] | Binder
4 | 2.75 | 68 % of control (GpH7-A5/GpH7-B3/GpL16-k0 = 100) | 24.7 % of control (GpH7-A5/GpH7-B3/GpL16-k0 = 100) |  |  |  | GpH7-A5/GpH7-B3 variant S239_11K/GpL16-k0 (antibody, human IgG1, kappa, Heterodimerized anti-glypican-3 IgG1; substitution in only one H chain; also called S239K; He Ab) heavy 1: not shown heavy 2: not shown light: DIVMTQSPLSLPVTPGEPASISCQASESLVHSNRNTYLHWYLQKPGQSPQLLIYKVSNRFSGVPDRFSGSGSGTDFTLKISRVEAEDVGVYYCSQNTHVPPTFGQGTKVEIERTVAAPSVFIFPPSDEQLKSGTASVVCLLNNFYPREAKVQWKVDNALQSGNSQESVTEQDSKDSTYSLSSTLTLSKADYEKHKVYACEVTHQGLSSPVTKSFNRGEC
5 |  |  |  | 1.57 | 51.4 % of control (GpH7-A5/GpH7-B3/GpL16-k0 = 100) | 80.5 % of control (GpH7-A5/GpH7-B3/GpL16-k0 = 100) | GpH7-A5/GpH7-B3 variant P238_12R/GpL16-k0 (antibody, human IgG1, kappa, Heterodimerized anti-glypican-3 IgG1; alteration in only one H chain (GpH7-B3 side); also called He Ab) heavy 1: not shown heavy 2: not shown light: DIVMTQSPLSLPVTPGEPASISCQASESLVHSNRNTYLHWYLQKPGQSPQLLIYKVSNRFSGVPDRFSGSGSGTDFTLKISRVEAEDVGVYYCSQNTHVPPTFGQGTKVEIERTVAAPSVFIFPPSDEQLKSGTASVVCLLNNFYPREAKVQWKVDNALQSGNSQESVTEQDSKDSTYSLSSTLTLSKADYEKHKVYACEVTHQGLSSPVTKSFNRGEC
6 |  |  |  | 1.26 | 70.4 % of control (GpH7-A5/GpH7-B3/GpL16-k0 = 100) | 88.9 % of control (GpH7-A5/GpH7-B3/GpL16-k0 = 100) | GpH7-A5/GpH7-B3 variant P238_13S/GpL16-k0 (antibody, human IgG1, kappa, Heterodimerized anti-glypican-3 IgG1; alteration in only one H chain (GpH7-B3 side); also called He Ab) heavy 1: not shown heavy 2: not shown light: DIVMTQSPLSLPVTPGEPASISCQASESLVHSNRNTYLHWYLQKPGQSPQLLIYKVSNRFSGVPDRFSGSGSGTDFTLKISRVEAEDVGVYYCSQNTHVPPTFGQGTKVEIERTVAAPSVFIFPPSDEQLKSGTASVVCLLNNFYPREAKVQWKVDNALQSGNSQESVTEQDSKDSTYSLSSTLTLSKADYEKHKVYACEVTHQGLSSPVTKSFNRGEC
7 |  |  |  | 2.57 | 1.3 % of control (GpH7-A5/GpH7-B3/GpL16-k0 = 100) | 3.4 % of control (GpH7-A5/GpH7-B3/GpL16-k0 = 100) | GpH7-A5/GpH7-B3 variant D265_07I/GpL16-k0 (antibody, human IgG1, kappa, Heterodimerized anti-glypican-3 IgG1; alteration in only one H chain (GpH7-B3 side); also called He Ab) heavy 1: not shown heavy 2: not shown light: DIVMTQSPLSLPVTPGEPASISCQASESLVHSNRNTYLHWYLQKPGQSPQLLIYKVSNRFSGVPDRFSGSGSGTDFTLKISRVEAEDVGVYYCSQNTHVPPTFGQGTKVEIERTVAAPSVFIFPPSDEQLKSGTASVVCLLNNFYPREAKVQWKVDNALQSGNSQESVTEQDSKDSTYSLSSTLTLSKADYEKHKVYACEVTHQGLSSPVTKSFNRGEC
